No end group written: not given here.
Legend:
hGR3 = target: T1, hGR3 (Homo sapiens, UniProt P49683); details: receptor expressed in human pituitary, nearly identical to GPR10; cited from earlier work
T1 sequence (P49683 1-370): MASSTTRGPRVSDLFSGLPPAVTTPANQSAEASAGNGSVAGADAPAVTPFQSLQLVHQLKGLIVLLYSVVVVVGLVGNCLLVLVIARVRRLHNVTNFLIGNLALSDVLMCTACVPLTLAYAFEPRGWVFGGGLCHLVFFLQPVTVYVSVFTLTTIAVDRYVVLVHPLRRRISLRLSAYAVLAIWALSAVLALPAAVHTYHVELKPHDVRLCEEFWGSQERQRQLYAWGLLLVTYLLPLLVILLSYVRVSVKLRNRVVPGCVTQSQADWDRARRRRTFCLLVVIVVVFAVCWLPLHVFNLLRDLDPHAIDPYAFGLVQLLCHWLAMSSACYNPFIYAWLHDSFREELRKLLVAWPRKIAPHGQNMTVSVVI

GPR10 [1] = target: T2, GPR10 (Mus musculus, UniProt Q6VMN6); assay: Metabolic rate of mice in an open-circuit calorimeter after intracerebroventricular PrRP; assay type: in vivo; details: 5 μg PrRP intracerebroventricular vs saline
T2 construct: from tissue; host or cells: brain of living C57BL/6J mice (lean and ob/ob), intracerebroventricular dosing
T2 sequence (Q6VMN6 1-370): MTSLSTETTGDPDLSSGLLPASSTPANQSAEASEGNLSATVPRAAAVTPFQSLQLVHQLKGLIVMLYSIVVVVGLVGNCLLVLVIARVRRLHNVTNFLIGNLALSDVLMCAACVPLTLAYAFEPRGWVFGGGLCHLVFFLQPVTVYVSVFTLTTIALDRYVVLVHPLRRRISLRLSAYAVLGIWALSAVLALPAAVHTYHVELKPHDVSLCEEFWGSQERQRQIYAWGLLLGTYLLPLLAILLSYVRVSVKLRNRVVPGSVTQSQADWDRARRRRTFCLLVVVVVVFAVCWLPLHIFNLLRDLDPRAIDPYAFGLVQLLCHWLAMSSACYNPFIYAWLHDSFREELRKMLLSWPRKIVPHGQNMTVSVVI
Experimental: The effect of a 5 μg dose of PrRP on the metabolic rate of male mice denied or permitted access to food was investigated as follows. Male C57BL/6J mice maintained as described above were placed in an open-circuit calorimeter coupled to a feeding monitor. The mice were administered 5 μg of PrRP or saline intracerebroventricularly at 1 hr and 45 min after the start of metabolic monitoring. One group (n=6) of mice was allowed access to food and one group of mice (n=6) was not allowed access to food. Respiratory quotient was calculated as the ratio of CO2 production/O2 consumption. Metabolic rate (kcal/g/h) was computed based on O2 consumption and respiratory rate quotient.

GPR10 [2] = target: T2, GPR10; assay: Food intake after intracerebroventricular injection of PrRP in mice; assay type: in vivo; details: 0.1, 1, 5, 10 mg PrRP intracerebroventricular vs saline, measured for two hours after treatment
Experimental: A 31 amino acid amidated synthetic peptide having the sequence of rat PrRP ([…]-NHz; SEQ ID NO:4; Hinuma et al., (1998) Nature 393:272-76) was used to examine the effect of GPR10 modulators on food intake.
Male and female lean and male obese ob/ob C57BL/6J mice were individually housed in macrolon cages (22±2° C.; 12:12 hr light:dark cycle with lights off at 6 pm). Tap water and mouse chow were given ad libitum. Mice were stereoaxically implanted with a chronic guide cannula aimed to the third ventricle (intracerebroventricular) one week prior to the initiation of the experiment.
Mice (15/group) were treated with […] of PrRP peptide or saline (control) by intracerebroventricular injections at 9:00 am. Food intake was measured for two hours after treatment.

[3] = tested on: anterior pituitary cells of lactating rats; details: anterior pituitary cells of lactating rats in vitro; cited from earlier work

metabolic rate (GPR10 [1]; lean male C57BL/6J mice having access to food, FIG. 7): increases the metabolic rate
metabolic rate (GPR10 [1]; lean male C57BL/6J mice having no access to food, FIG. 6): increases the metabolic rate
food intake (GPR10 [2]; lean female C57BL/6J mice, FIG. 4): increased food intake
food intake (GPR10 [2]; lean male C57BL/6J mice, FIG. 3): increased food intake
food intake (GPR10 [2]; male obese ob/ob C57BL/6J mice, FIG. 5): increased food intake
Substance: PrRP: 31 amino acid amidated synthetic peptide having the sequence of rat PrRP (SRAHQHSMETRTPDINPAWYTGRGIRPVGRF-NHz; SEQ ID NO:4); a GPR10 ligand (SRAHQHSMETRTPDINPAWYTGRGIRPVGRF-NH2; listed as Mus musculus)
binding to hGR3 (hGR3): binds to hGR3
release of prolactin [3]: stimulates release of prolactin
